Results published in PMC6504924, “Utilizing a Simple Method for Stoichiometric Protein Labeling to Quantify Antibody Blockade” (Scientific Reports, 2019).

B1: unlabeled VEGF165a homodimer purified in the same manner (with CDN N-terminal appendage) (ligand)
chain: CDNAPMAEGGGQNHHEVVKFMDVYQRSYCHPIETLVDIFQEYPDEIEYIFKPSCVPLMRCGGCCNDEGLECVPTEESNITMQIMRIKPHQGQHIGEMSFLQHNKCECRPKKDRARQENPCGPCSERRKHLFVQDPQTCKCSCKNTDSRCKARQLELNERTCRCDKPRR
modifications: disulfide-linked homodimer; unlabeled; mature VEGF165 limits by convention (191-aa AUG-initiated isoform precursor, signal 1-26) / disulfide-linked homodimer; unlabeled; mature VEGF165 limits by …
B2: unlabeled PDGF-BB homodimer purified in the same manner (with CDN N-terminal appendage) (ligand)
chain: CDNSLGSLTIAEPAMIAECKTRTEVFEISRRLIDRTNANFLVWPPCVEVQRCSGCCNNRNVQCRPTQVQLRPVQVRKIEIVRKKPIFKKATVTLEDHLACKCETVAAARPVT
notes: three-amino acid N-terminal appendage left after HaloTEV cleavage of the modified TEV site EDLYFQC; platelet-derived growth factor subunit B (PDGF-B); Disulfide-linked homodimer; also called PDFG-B; source: HEK293T, transiently expressed as secreted HaloTag fusion, purified (HaloLink beads, HaloTEV release); not shown: HaloTag, N-terminal, cleaved

What was measured:
[1] = target: T1, unlabeled VEGF165a homodimer purified in the same manner (with CDN N-terminal appendage); experiment: SDS-PAGE with and without reducing agent; purified growth factors resolved by SDS-PAGE in the presence and absence of 100 mM dithiothreitol (DTT); settings: both partners purified
T1 chain: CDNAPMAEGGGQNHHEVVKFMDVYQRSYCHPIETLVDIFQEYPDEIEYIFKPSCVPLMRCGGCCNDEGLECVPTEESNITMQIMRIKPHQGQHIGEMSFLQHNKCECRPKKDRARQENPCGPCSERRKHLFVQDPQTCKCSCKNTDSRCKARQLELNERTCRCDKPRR

[2] = target: the molecule itself; experiment: as above

Binder | stoichiometry N [1] | stoichiometry N [2]
B1 | 2 | 
B2 |  | 2
